Measurements published in patent publication US6051418.

How the values were obtained:
[1] = molecular target: Factor VIII dB695 (human) (UniProt P00451)
[2] = molecular target: Factor VIII dB695-HCII (human)
[3] = molecular target: Factor VIII obtained from plasma

- second order rate constant of activation by thrombin (M^-1 s^-1 × 10^-6) [1]: 3e-06 M⁻¹ s⁻¹
- second order rate constant of activation by thrombin (M^-1 s^-1 × 10^-6) [2]: 2.32e-05 M⁻¹ s⁻¹
- second order rate constant of activation by thrombin (M^-1 s^-1 × 10^-6) [3]: 2.1e-06 M⁻¹ s⁻¹
Substance: thrombin (enzyme)
